This note sets out measurements from patent publication US20090264354A1 (UNIVERSITY OF UTAH RESEARCH FOUNDATION, published 2009).

This data set deals with the molecule itself. The data set can be described thus: anti-Myc immunoprecipitation from co-transfected NIH3T3 lysates, non-reducing Western blot; 58-kD disulfide-bonded homodimer. The source says:
This example describes the analysis of the protein structure of Penumbra protein. NIH3T3 fibroblasts were co-transfected with pcDNA3.1/Pen-Myc and pEGFP NI/Pen. The latter expressed murine Penumbra (SEQ ID NO:3) as a fusion protein with enhanced green fluorescent protein (EGFP) in its C-terminus. The Pen-Myc fusion protein was first immunoprecipitated from cell lysates using the anti-Myc MAb, Western blotted and sequentially probed with anti-Myc and anti-EGFP antibodies. It appeared that both Pen-Myc/Pen-Myc and Pen-Myc/Pen-EGFP dimers were apparent in the immunoprecipitates under non-reducing conditions and they appeared to dissociate into monomers after reduction indicating they appear to form disulfide-bonded homodimers. It appeared that under reducing conditions, all Pen-Myc fusion proteins existed as 29-kD monomers. In contrast, under non-reducing conditions, it appeared that about half of Pen-Myc protein existed as 58-kD homodimers, while the remaining Pen-Myc protein appeared to exist either as 29-kDa monomers or 89-kDa dimers with Pen-EGFP. […] The same blot was then stripped and reprobed with anti-EGFP antibodies to reveal an apparent ˜60-kD Pen-EGFP monomer and the 89-kD Pen-Myc/Pen-EGFP dimer.
In general terms: Immunoblotting shows a protein as a band on a membrane.

B1: Penumbra-Myc fusion protein (murine Penumbra with C-terminal 11-aa Myc and 6-aa His tags, expressed from pcDNA3.1/Pen-Myc) (other)
chain: MARRPGVPAAYGDEFSFVSPLVKYLLFFFNMLFWVISMVMVAVGVYARLMKHAEAALACLAVDPAILLIVVGVLMFLLTFCGCIGSLRENICLLQTFSLCLTIVFLLQLAAGILGFVFSDKARGKVSEIINNAIVHYRDDLDLQNLIDFGQKKFSCCGGISYRDWSQNMYFNCSEDNPSRERCSVPYSCCLPTPRQAVINTMCGQGMQANDYLEASKVIYTNGCIDKLVNWIHSNLFLLGGVALGLAIPQLVGILLSQVLVNQIKDQIKLQLYNQQHRADPWY
notes: Seen as a 29-kD monomer on reducing gels; also called Pen-Myc fusion protein; Pen-Myc protein; not shown: 11-aa Myc tag from the pcDNA3.1 vector; 6-aa His tag from the pcDNA3.1 vector
Consider B1, for which the binding result is recorded as “binds”.
